What all share (experiment): fluorescence titration; 2-300 mM NaCl; site size 32 ± 2 nt; EMSA: 20 mM Tris-HCl pH 8.0, 100 mM NaCl, 1 mM EDTA, 25 C, 2% agarose in TAE; fluorescence titration: 20 mM Tris-HCl pH 8.0, 1 mM EDTA, 2/100/300 mM NaCl, 25 C
Settings in all cases: protein: recombinant; tags: none (stop codon in reverse primer); chain copies: 4; label: none stated
(In general: In EMSA bound probe runs differently from free probe, usually more slowly.)

Data set [1] concerns the target T1, PprSSB (Photobacterium profundum (LMG 19446), UniProt Q6LM83 5-187).
T1 sequence: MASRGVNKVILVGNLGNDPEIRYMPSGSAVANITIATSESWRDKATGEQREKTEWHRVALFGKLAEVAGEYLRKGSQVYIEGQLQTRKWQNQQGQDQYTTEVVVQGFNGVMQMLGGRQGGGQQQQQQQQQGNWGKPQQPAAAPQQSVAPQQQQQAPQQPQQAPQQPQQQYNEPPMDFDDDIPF

In data set [2] the target is T2, PcrSSB (Psychrobacter cryohalolentis K5 (DSM …, UniProt Q1Q9B8 1-1+=G+2-219, internal_change)).
T2 sequence: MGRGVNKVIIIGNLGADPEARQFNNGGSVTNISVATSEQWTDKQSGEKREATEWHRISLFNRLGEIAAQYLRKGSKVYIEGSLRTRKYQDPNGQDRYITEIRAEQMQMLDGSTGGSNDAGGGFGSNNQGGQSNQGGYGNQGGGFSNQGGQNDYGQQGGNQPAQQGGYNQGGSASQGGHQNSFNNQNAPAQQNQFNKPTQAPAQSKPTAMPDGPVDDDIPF

Data set [3] deals with T3, PtoSSB (Psychroflexus torquis ATCC 700755 (LMG …, UniProt K4IS14 1-151)).
T3 sequence: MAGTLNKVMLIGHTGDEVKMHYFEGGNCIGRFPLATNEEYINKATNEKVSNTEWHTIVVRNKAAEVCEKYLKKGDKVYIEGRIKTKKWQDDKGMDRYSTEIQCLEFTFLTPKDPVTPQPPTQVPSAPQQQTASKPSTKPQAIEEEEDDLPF

B1: (dT)76 (ssDNA)
DNA: TTTTTTTTTTTTTTTTTTTTTTTTTTTTTTTTTTTTTTTTTTTTTTTTTTTTTTTTTTTTTTTTTTTTTTTTTTTT
For the molecule B1, the binding signal in data set [1] was 90 ± 3 % Trp fluorescence quench at saturation; in data set [2], 93 ± 3 % Trp fluorescence quench at saturation; in data set [3] it was 93 ± 3 % Trp fluorescence quench at saturation.

The record behind these values is publication PMC3991886, “Characterization of single-stranded DNA-binding proteins from the psychrophilic bacteria Desulfotalea psychrophila, Flavobacterium psychrophilum, Psychrobacter arcticus, Psychrobacter cryohalolentis, Psychromonas ingrahamii, Psychroflexus torquis, and Photobacterium profundum” (BMC Microbiology, 2014).
